From article PMC3436577 (The Journal of Biological Chemistry, 2012)

Columns and labels:
Test in all cases: pull-down
GST-eIF1 = GST-eIF1 (S. cerevisiae, UniProt P32911 1-108)
[1] = molecular target: c/Nip1-His GAP85 (Δ60–144) (S. cerevisiae, UniProt P32497 1-812, Δ60–144)
c/Nip1-His Box15-2 = c/Nip1-His Box15-2 (S. cerevisiae, UniProt P32497 1-812, I142V | E145W | F146T | D147L | I149R)
c/Nip1-His Box12-WWPW = c/Nip1-His Box12-WWPW (S. cerevisiae, UniProt P32497 1-812, V111W | V112W | K116P | K118W)

Sequence of GST-eIF1 (P32911 whole entry): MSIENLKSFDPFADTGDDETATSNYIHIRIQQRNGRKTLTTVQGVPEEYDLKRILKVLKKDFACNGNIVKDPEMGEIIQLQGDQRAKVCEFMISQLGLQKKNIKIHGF

Row | fold increase in binding relative to the WT c/Nip1-NTD (GST-eIF1) | reduction of eIF5 associated in vivo, relative to WT c/Nip1-His [1] | reduction of eIF5 associated in vivo, relative to WT c/Nip1-His (c/Nip1-His Box15-2) | reduction of eIF5 associated in vivo, relative to WT c/Nip1-His (c/Nip1-His Box12-WWPW) | Binder
1 | ~2 fold |  |  |  | c/Nip1-NTD (1–270) Box12-SPW (domain or fragment, 35S-labeled) MSRFFSSNYEYDVASSSSEEDLLSSSEEDLLSSSSSESELDQESDDSFFNESESESEADVDSDDSDAKPYGPDWFKKSEFRKQGGGSNKFLKSSNYDSSDEESDEEDGKKVVSSAPEWLLDEMQDVYNKISQAENSDDWLTISNEFDLISRLLVRAQQQNWGTPNIFIKVVAQVEDAVNNTQQADLKNKAVARAYNTTKQRVKKVSRENEDSMAKFRNDPESFDKEPTADLDISANGFTISSSQGNDQAVQEDFFTRLQTIIDSRGKKTV
2 |  | > 60% | > 60% | ~30% | eIF5 (natural protein) MSINICRDNHDPFYRYKMPPIQAKVEGRGNGIKTAVLNVADISHALNRPAPYIVKYFGFELGAQTSISVDKDRYLVNGVHEPAKLQDVLDGFINKFVLCGSCKNPETEIIITKDNDLVRDCKACGKRTPMDLRHKLSSFILKNPPDSVSGSKKKKKAATASANVRGGGLSISDIAQGKSQNAPSDGTGSSTPQHHDEDEDELSRQIKAAASTLEDIEVKDDEWAVDMSEEAIRARAKELEVNSELTQLDEYGEWILEQAGEDKENLPSDVELYKKAAELDVLNDPKIGCVLAQCLFDEDIVNEIAEHNAFFTKILVTPEYEKNFMGGIERFLGLEHKDLIPLLPKILVQLYNNDIISEEEIMRFGTKSSKKFVPKEVSKKVRRAAKPFITWLETAESDDDEEDDE
